Data reported in patent publication US11814435B2, “Therapeutic antibodies and their uses” (PFIZER INC., priority 2015, dated 2023).
Substitutions are numbered along the chain they refer to. One block for each molecule: values may come before it.

Columns and labels:
hBCMA (human BCMA) = target: T1, hBCMA (human BCMA) (Homo sapiens, UniProt Q02223); experiment: Kinetics and affinity of hBCMA/human IgG interactions by SPR (Bio-Rad Proteon XPR36); format: binding; details: huBCMA, 37° C.
T1 sequence (Q02223 1-184): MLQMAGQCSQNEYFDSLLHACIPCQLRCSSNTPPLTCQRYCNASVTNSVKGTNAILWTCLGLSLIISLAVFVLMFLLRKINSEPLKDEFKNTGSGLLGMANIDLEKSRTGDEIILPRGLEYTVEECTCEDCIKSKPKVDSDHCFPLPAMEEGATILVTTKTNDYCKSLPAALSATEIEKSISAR
Procedure: All experiments were performed on a Bio-Rad Proteon XPR36 surface Plasmon resonance biosensor (Bio-Rad, Hercules, Calif.). An array of anti-BCMA antibodies was prepared using an amine-coupling method on a Bio-Rad GLC Sensor Chip similar to that described in Abdiche, et al., Anal. Biochem. 411, 139-151 (2011). The analysis temperature for the immobilization was 25° C. and the running buffer was HBS-T+(10 mM HEPES, 150 mM NaCl, 0.05% Tween-20, pH 7.4). Channels were activated in the analyte (horizontal) direction by injecting a mixture of 1 mM ECD and 0.25 mM NHS for 3 minutes at a flow rate of 30 μL/min. IgGs were immobilized on the activated spots by injecting them in the ligand (vertical) direction at 20 μg/mL in 10 mM Acetate pH 4.5 buffer for 1.5 minutes at […]. The activated surfaces were blocked by injecting 1M ethanolamine, pH 8.5 in the analyte direction for 3 minutes at 30 μL/min.
The analysis temperature for the hBCMA binding analysis was 37° C. or 25° C. in a running buffer of HBS-T+, supplemented with 1 mg/mL BSA. A kinetic titration method was employed for the interaction analysis as described in Abdiche, et al. The hBCMA (human BCMA) analyte was injected in the analyte direction using a series of injections from low to high concentration. The concentrations used were 0.08 nM, 0.4 nM, 2 nM, 10 nM and 50 nM (a 5-membered series, with a 5-fold dilution factor and top concentration of 50 nM). The association time for a given analyte dilution was two minutes. Immediately after the 50 nM hBCMA injection, dissociation was monitored for 2 hours. Prior to the hBCMA analyte injections, buffer was injected 5 times using the same association and dissociation times at the hBCMA analyte cycles to prepare a buffer blank sensorgram for double-referencing purposes (double referencing as described in Myszka, J. Mol. Recognit. 12, 279-284 (1999).
The sensorgrams were double-referenced and fit to a 1:1 Langmuir with mass transport kinetic titration model in BIAevaluation Software version 4.1.1 (GE Lifesciences, Piscataway, N.J.). The sensorgrams and fits are shown in FIG. 1, and the kinetics and affinity parameters for various anti-BCMA antibodies of the present invention are shown in Tables 6A-6C.

cyBCMA = experiment: Kinetics and affinity of cyBCMA/human IgG interactions by SPR (Bio-Rad Proteon XPR36); format: binding, cynomolgus; details: 37° C.

B1: L3.PY/L1.AH/H3.AE: anti-BCMA antibody (antibody, V domains shown)
VH: EVQLLESGGGLVQPGGSLRLSCAASGFTFGSYAMTWVRQAPGKGLEWVSAISGSGGNTFYADSVKGRFTISRDNSKNTLYLQMNSLRAEDTAVYYCARVSPIAAEMDYWGQGTLVTVSS
VL: EIVLTQSPGTLSLSPGERATLSCRASQSVSAHYLAWYQQKPGQAPRLLIYGASSRATGIPDRFSGSGSGTDFTLTISRLEPEDFAVYYCQHYPYPPSFTFGQGTKVEIK
ka (1/Ms) huBCMA @ 37° C. (hBCMA (human BCMA)): 3.32e+06 M⁻¹ s⁻¹
kd (1/s) huBCMA @37° C. (hBCMA (human BCMA)): 0.00173 s⁻¹
ka (1/Ms) cyBCMA @ 37° C. (cyBCMA): 2.25e+06 M⁻¹ s⁻¹
kd (1/s) cyBCMA @37° C. (cyBCMA): 0.00356 s⁻¹

B3: L3.PY/L1.AH/H2.QL: anti-BCMA antibody (antibody, V domains shown)
VH: B1 VH with S63Q, V64L, A104S, E105G
VL: B1 VL
ka (1/Ms) huBCMA @ 37° C. (hBCMA (human BCMA)): 3.04e+06 M⁻¹ s⁻¹
kd (1/s) huBCMA @37° C. (hBCMA (human BCMA)): 0.0016 s⁻¹
ka (1/Ms) cyBCMA @ 37° C. (cyBCMA): 2.62e+06 M⁻¹ s⁻¹
kd (1/s) cyBCMA @37° C. (cyBCMA): 0.00955 s⁻¹

B4: L3.PY/L1.FF/H2.QL: anti-BCMA antibody (antibody, V domains shown)
VH: B1 VH with S63Q, V64L, A104S, E105G
VL: B1 VL with A31S, H32F, Y33F
ka (1/Ms) huBCMA @ 37° C. (hBCMA (human BCMA)): 3.48e+06 M⁻¹ s⁻¹
kd (1/s) huBCMA @37° C. (hBCMA (human BCMA)): 0.0014 s⁻¹
ka (1/Ms) cyBCMA @ 37° C. (cyBCMA): 2.36e+06 M⁻¹ s⁻¹
kd (1/s) cyBCMA @37° C. (cyBCMA): 0.00449 s⁻¹

B5: L3.PY/L1.AH/H3.YA: anti-BCMA antibody (antibody, V domains shown)
VH: B1 VH with A103Y, E105G
VL: B1 VL
ka (1/Ms) huBCMA @ 37° C. (hBCMA (human BCMA)): 3e+06 M⁻¹ s⁻¹
kd (1/s) huBCMA @37° C. (hBCMA (human BCMA)): 0.0015 s⁻¹
ka (1/Ms) cyBCMA @ 37° C. (cyBCMA): 2.37e+06 M⁻¹ s⁻¹
kd (1/s) cyBCMA @37° C. (cyBCMA): 0.00526 s⁻¹

B6: L3.PY/L1.AH/H3.TAQ: anti-BCMA antibody (antibody, V domains shown)
VH: B1 VH with A97T, E105Q
VL: B1 VL
ka (1/Ms) huBCMA @ 37° C. (hBCMA (human BCMA)): 3.27e+06 M⁻¹ s⁻¹
kd (1/s) huBCMA @37° C. (hBCMA (human BCMA)): 0.00119 s⁻¹
ka (1/Ms) cyBCMA @ 37° C. (cyBCMA): 2.28e+06 M⁻¹ s⁻¹
kd (1/s) cyBCMA @37° C. (cyBCMA): 0.00302 s⁻¹

B7: L3.PY/L1.FF/H2.YQ: anti-BCMA antibody (antibody, V domains shown)
VH: B1 VH with G53Y, S54Q, A104S, E105G
VL: B1 VL with A31S, H32F, Y33F
ka (1/Ms) huBCMA @ 37° C. (hBCMA (human BCMA)): 3.32e+06 M⁻¹ s⁻¹
kd (1/s) huBCMA @37° C. (hBCMA (human BCMA)): 0.00152 s⁻¹
ka (1/Ms) cyBCMA @ 37° C. (cyBCMA): 2.19e+06 M⁻¹ s⁻¹
kd (1/s) cyBCMA @37° C. (cyBCMA): 0.00326 s⁻¹

B8: L3.PY/L1.FF/H2.HA: anti-BCMA antibody (antibody, V domains shown)
VH: B1 VH with G53H, S54A, A104S, E105G
VL: B1 VL with A31S, H32F, Y33F
ka (1/Ms) huBCMA @ 37° C. (hBCMA (human BCMA)): 3.49e+06 M⁻¹ s⁻¹
kd (1/s) huBCMA @37° C. (hBCMA (human BCMA)): 0.00219 s⁻¹
ka (1/Ms) cyBCMA @ 37° C. (cyBCMA): 2.33e+06 M⁻¹ s⁻¹
kd (1/s) cyBCMA @37° C. (cyBCMA): 0.00417 s⁻¹

Further lines, with some results ahead:

ka (1/Ms) huBCMA @ 37° C. (hBCMA (human BCMA)): 3.5e+06 M⁻¹ s⁻¹
kd (1/s) huBCMA @37° C. (hBCMA (human BCMA)): 0.0018 s⁻¹
kd (1/s) cyBCMA @37° C. (cyBCMA): 0.00416 s⁻¹
B2: L3.PY/L1.FF/H3.YA: anti-BCMA antibody (antibody, V domains shown)
VH: B1 VH with A103Y, E105G
VL: B1 VL with A31S, H32F, Y33F
ka (1/Ms) cyBCMA @ 37° C. (cyBCMA): 2.46e+06 M⁻¹ s⁻¹

ka (1/Ms) huBCMA @ 37° C. (hBCMA (human BCMA)): 2.37e+06 M⁻¹ s⁻¹
kd (1/s) huBCMA @37° C. (hBCMA (human BCMA)): 0.00116 s⁻¹
kd (1/s) cyBCMA @37° C. (cyBCMA): 0.00553 s⁻¹
B9: L3.PY/L1.PH/H2.HA: anti-BCMA antibody (antibody, V domains shown)
VH: B1 VH with G53H, S54A, A104S, E105G
VL: B1 VL with A31P
ka (1/Ms) cyBCMA @ 37° C. (cyBCMA): 1.61e+06 M⁻¹ s⁻¹

ka (1/Ms) huBCMA @ 37° C. (hBCMA (human BCMA)): 3.69e+06 M⁻¹ s⁻¹
kd (1/s) huBCMA @37° C. (hBCMA (human BCMA)): 0.00236 s⁻¹
kd (1/s) cyBCMA @37° C. (cyBCMA): 0.00436 s⁻¹
B10: L3.PY/L1.PH/H2.QR: anti-BCMA antibody (antibody, V domains shown)
VH: B1 VH with S63Q, V64R, A104S, E105G
VL: B1 VL with A31P
ka (1/Ms) cyBCMA @ 37° C. (cyBCMA): 2.42e+06 M⁻¹ s⁻¹
